Test system: CHO-M1 cells
Assay: Entry of a fluorophore into cells in culture, fluorescence reader
Details: 2.5 μM or 5 μM in KREBS buffer, 1 hour, FIG. 13
Experimental: CHO cells are cultivated at 37° C., under a controlled atmosphere containing 5% of CO2, in F-12 HAM medium (Invitrogen)+10% of fetal calf serum (FCS) previously inactivated for 20 min at 60° C.
On the day before the experiment, CHO-M1 cells are inoculated into a 96-well plate at a density of 10,000 cells per well.
On the day of the experiment, the culture medium is aspirated and replaced with the test compounds at a concentration of 2.5 μM or 5 μM in KREBS buffer (Sigma). After 1 hour of incubation, the wells are washed with a KREBS buffer+0.05% Tween 20. The cells are then lyzed in a PBS buffer+0.1% Triton X100. The fluorescence is measured on an Analyst AD reader (LJL, Molecular Devices) with the filters and the dichroic appropriate for the spectral specificities of the compound to be detected.

N=C(N)NCCCC(NC(=O)CCCCCN)C(=O)NCCCCCC(=O)NC(CCCNC(=N)N)C(=O)NCCCCCC(=O)NC(CCCNC(=N)N)C(=O)NCCCCCC(=O)NC(CCCNC(=N)N)C(=O)NCCCCCC(=O)NC(CCCNC(=N)N)C(=O)NCCCCCC(=O)NC(CCCNC(=N)N)C(=O)NCCCCCC(=O)NC(CCCNC(=N)N)C(=O)NC(CSCC(=O)Nc1ccc2c(c1)C1(OC2=O)c2ccc(O)cc2Oc2cc(O)ccc21)C(N)=O (stereo not shown) [R7fluorescein]
entry into the cell (fluorescence intensity of lysed cells): enter the cell

From patent US8470523B2, “Method for detecting intracellular interaction between biomolecules” (CIS BIO International, priority 2005, dated 2013)
